Biological target: cyclin-dependent kinase 1 (CDK1) (Xenopus laevis (endogenous in oocyte CSF extract))

histone H1 kinase activity of CDC6-depleted CSF extract with 10 to 20 nM GST-CDC6 added (about 40% less with 10 nM, 45% less with 20 nM): 45 % less
Substance: glutathione S-transferase-tagged cell division cycle 6 (GST-CDC6) (natural protein)
